The results in this text go back to patent US20020062008A1.

For test [1], the target named is soluble human αd/CD18 leucine zipper heterodimer (human) (UniProt P05107). In words: ELISA, CAM/Ig on αd/CD18LZ captured with 212D. On the technique in general: ELISA stands for enzyme-linked immunosorbent assay.
The target of test [2] is LFA-1 leucine zipper fusion protein (soluble CD11a/CD18) (UniProt P20701). In words: ELISA, CAM/Ig on captured soluble CD11a/CD18.

B1: soluble VCAM-1/IgG1 fusion protein (seven extracellular immunoglobulin-like domains) (Fc fusion, UniProt P19320 25-698, looked up, not shown: a dimerising Fc or GST)
chain: FKIETTPESRYLAQIGDSVSLTCSTTGCESPFFSWRTQIDSPLNGKVTNEGTTSTLTMNPVSFGNEHSYLCTATCESRKLEKGIQVEIYSFPKDPEIHLSGPLEAGKPITVKCSVADVYPFDRLEIDLLKGDHLMKSQEFLEDADRKSLETKSLEVTFTPVIEDIGKVLVCRAKLHIDEMDSVPTVRQAVKELQVYISPKNTVISVNPSTKLQEGGSVTMTCSSEGLPAPEIFWSKKLDNGNLQHLSGNATLTLIAMRMEDSGIYVCEGVNLIGKNRKEVELIVQEKPFTVEISPGPRIAAQIGDSVMLTCSVMGCESPSFSWRTQIDSPLSGKVRSEGTNSTLTLSPVSFENEHSYLCTVTCGHKKLEKGIQVELYSFPRDPEIEMSGGLVNGSSVTVSCKVPSVYPLDRLEIELLKGETILENIEFLEDTDMKSLENKSLEMTFIPTIEDTGKALVCQAKLHIDDMEFEPKQRQSTQTLYVNVAPRDTTVLVSPSSILEEGSSVNMTCLSQGFPAPKILWSRQLPNGELQPLSENATLTLISTKMEDSGVYLCEGINQAGRSRKEVELIIQVTPKDIKLTAFPSESVKEGDTVIISCTCGNVPETWIILKKKAETGDTVLKSIDGAYTIRKAQLKDAGVYECESKNKVGSQLRSLTLDVQGRENNKDYFSPE
In test [1], B1 came in with a fold increase in signal above background of 5 fold.

B2: ICAM-2/Ig (Fc fusion, part only; not given: Ig portion, UniProt P13598 25-223, looked up, part only)
chain, part: KVFEVHVRPKKLAVEPKGSLEVNCSTTCNQPEVGGLETSLDKILLDEQAQWKHYLVSNISHDTVLQCHFTCSGKQESMNSNVSVYQPPRQVILTLQPTLVAVGKSFTIECRVPTVEPLDSLTLFLFRGNETLHYETFGKAAPAPQEATATFNSTADREDGHRNFSCLAVLDLMSRGGNIFHKHSAPKMLEIYEPVSDSQ
In turn, B2 registered a fold above background in test [2] of 10 fold.
